Assay results from patent publication US20090098112A1 (Genentech, published 2009).
Where a chain is given by its changes, count along the chain named. Numbers in names are those of the source. Each block holds one binder with its values, some of them ahead of it.

What was measured:
[1] = biological target: T1, recombinant human integrin α5β1 (R&D) (human, UniProt P08648 42-995; P05556 21-728); assay: phage competition ELISA: Fab-phage incubated with serially diluted soluble human integrin α5β1, unbound phage captured on plate-coated integrin α5β1, anti-M13-HRP, A450
T1 construct: Bought recombinant heterodimer (R&D); It was used coated on plates and in solution in the phage ELISA, and as analyte or immobilized in BIAcore; also called alpha5beta1; a5b1
Method: Mutation at each position was generated by Kunkel mutagenesis using a separate oligonucleotide. Phage competition ELISA was utilized for evaluating all of the variants. […] Binding affinities (IC50) against human integrin α5β1 was determined.
(§1) MAXISORP™ microtiter plates were coated with recombinant human integrin α5β1 (R&D) at 5 μg/ml in PBS overnight and then blocked with PBST buffer (0.5% BSA and 0.05% Tween 20 in PBS) for an hour at room temperature. Phage from culture supernatants were incubated with serially diluted human integrin α5β1 in PBST buffer in a tissue-culture microtiter plate for an hour, after which 80 μl of the mixture was transferred to the target-coated wells for 15 minutes to capture unbound phage. The plate was washed with PBT buffer (0.05% Tween 20 in PBS), and HRP-conjugated anti-M13 (Amersham Pharmacia Biotech) was added (1:5000 in PBST buffer) for 40 minutes. The plate was washed with PBT buffer and developed by adding tetramethylbenzidine substrate (Kirkegaard and Perry Laboratories, Gaithersburg, Md.). The absorbance at 450 nm was plotted as a function of target concentration in solution to determine phage IC₅₀.

[2] = biological target: T1, recombinant human integrin α5β1 (R&D); assay: phage competition ELISA IC50 of the Fab-phage against human integrin α5β1, relative to parental h7H5.v1; down arrow = loss, up arrow = improvement of binding affinity
Method: Substitutions with other resides at various positions was achieved by Kunkel mutagenesis using a separate oligonucleotide for each position. […] The IC50 values for binding affinity were determined by phage competition ELISA in FIG. 6. Two variants, h7H5.v2 and h7H5.v3 as indicated were selected to include glycine substitution at position 65 of CDR-H2, cloned into hIgG1 vector, and evaluated binding affinities using BIAcore instrument.
as §1

[3] = biological target: T1, recombinant human integrin α5β1 (R&D); assay: SPR (BIACORE-3000), antibody immobilized on CM5 chip (about 450 RU), human integrin α5β1 injected 300 nM to 0.29 nM, 25 °C, 1:1 Langmuir fit
Method: (§2) FIG. 9 depicts the results of a BIACORE® analysis of humanized 7H5.v2, v4 and v5-IgG against human integrin α5β1.
(§3) Affinity determinations were performed by surface-plasmon resonance using a BIACORE™-3000 instrument. Immobilization was achieved by random coupling through amino groups using a protocol provided by the manufacturer. Two different formats were operated to study binding kinetics for antibody against human integrin α5β1. In FIGS. 3A, 7, and 9A, antibodies were immobilized on a CM5 sensor chip around 450 response units (RU), and 2-fold serial diluted concentrations of human integrin α5β1 (300 nM to 0.29 nM) in PBT buffer (0.05% Tween 20 in PBS) were injected with a flow rate of 30 μl/min at 25° C. In FIGS. 3B and 9B, human integrin […] was immobilized on a CM5 sensor chip around 800 RU, and 2-fold serial diluted concentrations of antibodies (200 nM to 0.2 nM) in PBT buffer (0.05% Tween 20 in PBS) were injected with a flow rate of 30 μl/min at 25° C. After each injection, the chip was regenerated using 10 mM Glycine-HCl buffer at pH 1.7. Binding response was corrected by subtracting the RU from a blank flow cell. Association rates (kₒₙ) and dissociation rates (koff) were calculated using a simple one-to-one Langmuir binding model (BIAcore Evaluation Software version 3.2). The equilibrium dissociation constant (Kd) was calculated as the ratio koff/kₒₙ.

[4] = biological target: T1, recombinant human integrin α5β1 (R&D); assay: as above; remark: listed apart in the source
Method: FIG. 7 depicts the results of a BIACORE® analysis of humanized 7H5.v1, v2 and v3-IgG against human integrin α5β1. […] Humanized 7H5.v2 indicates the most binding affinity improvement in off-rate.
as §3

[5] = biological target: T1, recombinant human integrin α5β1 (R&D); assay: SPR (BIACORE-3000), human integrin α5β1 immobilized on CM5 chip (about 800 RU), antibody injected 200 nM to 0.2 nM, 25 °C, 1:1 Langmuir fit
Method: as §2, §3

[6] = biological target: T1, recombinant human integrin α5β1 (R&D); assay: SPR (BIACORE-3000), antibody immobilized on CM5 chip (about 450 RU), human integrin α5β1 injected 300 nM to 0.29 nM, 25 °C, 1:1 Langmuir fit; remark: listed apart in the source
Method: (§4) FIG. 3 depicts the results of a BIACORE® analysis of chimeric 7H5-IgG and humanized 7H5.v1-IgG against human integrin α5β1.
as §3

[7] = biological target: T1, recombinant human integrin α5β1 (R&D); assay: SPR (BIACORE-3000), human integrin α5β1 (R&D) immobilized on CM5 chip (about 800 RU), antibody injected 200 nM to 0.2 nM, 25 °C, 1:1 Langmuir fit
Method: as §4, §3

T1 sequence (P08648 42-995 limits assumed, chain 1 of 2): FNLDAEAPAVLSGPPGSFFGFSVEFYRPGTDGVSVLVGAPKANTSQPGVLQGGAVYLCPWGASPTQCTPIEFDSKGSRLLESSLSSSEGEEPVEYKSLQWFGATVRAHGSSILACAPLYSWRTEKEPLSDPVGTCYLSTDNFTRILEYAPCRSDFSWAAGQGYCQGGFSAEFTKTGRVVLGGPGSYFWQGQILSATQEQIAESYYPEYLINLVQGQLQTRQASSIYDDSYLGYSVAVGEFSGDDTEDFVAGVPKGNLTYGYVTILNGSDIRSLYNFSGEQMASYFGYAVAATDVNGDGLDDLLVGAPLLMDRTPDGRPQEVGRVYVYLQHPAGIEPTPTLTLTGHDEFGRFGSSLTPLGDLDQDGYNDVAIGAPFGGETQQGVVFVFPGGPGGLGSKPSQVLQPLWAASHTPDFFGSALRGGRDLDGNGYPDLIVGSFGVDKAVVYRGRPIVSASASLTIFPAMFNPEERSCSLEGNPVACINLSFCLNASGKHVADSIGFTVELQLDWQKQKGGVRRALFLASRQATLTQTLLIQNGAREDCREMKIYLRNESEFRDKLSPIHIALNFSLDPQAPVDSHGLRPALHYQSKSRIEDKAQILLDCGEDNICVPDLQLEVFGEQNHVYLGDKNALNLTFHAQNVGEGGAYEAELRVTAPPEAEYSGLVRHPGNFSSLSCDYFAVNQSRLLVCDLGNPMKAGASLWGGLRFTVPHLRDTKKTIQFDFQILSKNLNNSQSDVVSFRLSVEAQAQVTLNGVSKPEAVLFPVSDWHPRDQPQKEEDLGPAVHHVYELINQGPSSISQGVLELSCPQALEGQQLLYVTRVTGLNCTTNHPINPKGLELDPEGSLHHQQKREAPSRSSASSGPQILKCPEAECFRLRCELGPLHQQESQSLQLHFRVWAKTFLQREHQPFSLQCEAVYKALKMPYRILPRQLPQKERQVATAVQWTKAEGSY
T1 sequence (P05556 21-728 limits assumed, chain 2 of 2): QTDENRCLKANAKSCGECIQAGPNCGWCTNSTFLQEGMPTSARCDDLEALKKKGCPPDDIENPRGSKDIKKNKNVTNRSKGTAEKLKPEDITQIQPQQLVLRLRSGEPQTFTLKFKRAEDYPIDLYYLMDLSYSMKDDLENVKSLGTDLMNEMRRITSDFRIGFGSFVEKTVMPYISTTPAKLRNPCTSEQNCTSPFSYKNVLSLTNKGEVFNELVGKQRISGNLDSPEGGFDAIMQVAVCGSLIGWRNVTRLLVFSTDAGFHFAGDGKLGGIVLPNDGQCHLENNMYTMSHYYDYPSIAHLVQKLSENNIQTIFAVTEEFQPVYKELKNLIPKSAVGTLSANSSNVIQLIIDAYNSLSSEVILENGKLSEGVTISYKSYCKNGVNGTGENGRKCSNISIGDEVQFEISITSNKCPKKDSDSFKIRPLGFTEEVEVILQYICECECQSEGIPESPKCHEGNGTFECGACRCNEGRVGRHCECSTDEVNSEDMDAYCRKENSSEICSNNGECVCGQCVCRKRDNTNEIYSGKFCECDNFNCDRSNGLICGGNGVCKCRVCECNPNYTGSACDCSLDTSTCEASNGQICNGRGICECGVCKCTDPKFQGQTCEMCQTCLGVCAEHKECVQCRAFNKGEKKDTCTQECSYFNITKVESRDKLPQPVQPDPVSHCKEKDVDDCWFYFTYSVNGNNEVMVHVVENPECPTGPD

B3: humanized 7H5.v2-IgG (antibody, V domains shown)
VH: EVQLVESGGGLVQPGGSLRLSCAASGYTFTDYYLYWVRQAPGKGLEWIGGISPSSGGTTFADAFEGKATLSVDKSKNTAYLQMNSLRAEDTAVYYCTRDAYGDWYFDVWGQGT
VL: DIQMTQSPSSLSASVGDRVTITCKASQSVGSDVAWYQQKPGKAPKTLIYSTSYRYSGVPSRFSGSGSGTDFTLTISSLQPEDFATYYCQQYSSYPFTFGQGTKVEIKR
notes: also called h7H5.v2
Kd [3]: 0.77 nM | koff [3]: 6.4e-05 s⁻¹ | kon [3]: 83000 M⁻¹ s⁻¹ | Kd [4]: 0.77 nM | koff [4]: 6.2e-05 s⁻¹ | kon [4]: 81000 M⁻¹ s⁻¹ | Kd [5]: 0.11 nM | koff [5]: 0.00015 s⁻¹ | kon [5]: 1.4e+06 M⁻¹ s⁻¹

B5: h7H5.v3 (antibody, human IgG1, V domains shown)
VH: B3 VH with A63S
VL: B3 VL
notes: as human IgG1; also called humanized 7H5.v3-IgG
Kd [4]: 1.07 nM | koff [4]: 7.5e-05 s⁻¹ | kon [4]: 70000 M⁻¹ s⁻¹

B6: h7H5.v1 (antibody, human IgG1, V domains shown)
VH: B3 VH with S55N, A61N, A63N, G66N
VL: B3 VL with S28N, S92N
notes: CDR graft of murine 7H5, as human IgG1; also called humanized 7H5.v1-IgG
Kd [4]: 1.91 nM | koff [4]: 8.2e-05 s⁻¹ | kon [4]: 43000 M⁻¹ s⁻¹ | Kd [6]: 3.67 nM | koff [6]: 0.00018 s⁻¹ | kon [6]: 49000 M⁻¹ s⁻¹ | Kd [7]: 0.23 nM | koff [7]: 0.0002 s⁻¹ | kon [7]: 870000 M⁻¹ s⁻¹

More lines, now with the values ahead:

IC50 (read off the curve) [1]: 0.2 nM | Relative Fold to h7H5.v1 [2]: 2.4 fold
B1: CDR-H2:N54A (Fab, part only; not given: VH end, constant domains, phage fusion, V domains shown, not shown: another chain or arm of the molecule; a dimerising Fc or GST; large carriers)
VL: DIQMTQSPSSLSASVGDRVTITCKASQNVGSDVAWYQQKPGKAPKTLIYSTSYRYSGVPSRFSGSGSGTDFTLTISSLQPEDFATYYCQQYNSYPFTFGQGTKVEIK
VH: B3 VH with S55A, A61N, A63N, G66N

IC50 (read off the curve) [1]: 0.1 nM | Relative Fold to h7H5.v1 [2]: 1.3 fold
B2: CDR-H2:N62S (Fab, part only; not given: VH end, constant domains, phage fusion, V domains shown, not shown: another chain or arm of the molecule; a dimerising Fc or GST; large carriers)
VL: B1 VL
VH: B3 VH with S55N, A61N, A63S, G66N

Kd [3]: 0.73 nM | koff [3]: 5.5e-05 s⁻¹ | kon [3]: 75000 M⁻¹ s⁻¹ | Kd [5]: 0.14 nM | koff [5]: 0.00013 s⁻¹ | kon [5]: 930000 M⁻¹ s⁻¹
B4: humanized 7H5.v4-IgG (antibody, V domains shown)
VH: B3 VH with T30S, I48V, K67R, A68F, L70I
VL: B3 VL with T46L
notes: also called h7H5.v4

Kd [3]: 0.97 nM | koff [3]: 6.7e-05 s⁻¹ | kon [3]: 69000 M⁻¹ s⁻¹ | Kd [5]: 0.26 nM | koff [5]: 0.00017 s⁻¹ | kon [5]: 660000 M⁻¹ s⁻¹
B7: h7H5.v5 (antibody, human IgG1, V domains shown)
VH: B3 VH with T30S, I48V, G49S, K67R, A68F, L70I
VL: B3 VL with T46L
notes: as human IgG1; also called humanized 7H5.v5-IgG
